Test results as given in patent publication US8821862B2, “Soluble β-N-acetylglucosaminidase based antibiofilm compositions and uses thereof” (Kane Biotech Inc., priority 2002, dated 2014).

Experiments:
E. coli = assay: In vitro microplate biofilm formation assay (crystal violet); type: cell-based, Escherichia coli; conditions: DispersinB at different concentrations, CFA medium, 26° C., 24 hours
Description: (§5) An in vitro microplate assay was performed to determine the effect of DispersinB™ on the growth and biofilm formation of E. coli, S. epidermidis, and S. aureus. E. coli biofilm was grown in colony forming antigen (CFA) medium. […] S. epidermidis and S. aureus biofilm was grown in tryptic soy broth (TSB). Bacteria were separately grown in 96-well microtiterplate in the absence and presence of DispersinB™ at different concentrations. The E. coli plate was incubated at 26° C. for 24 hours. The S. epidermidis and S. aureus biofilm plates were incubated at 37° C. for 24 hours. Growth of planktonic cells based on the absorbance at 600 nm was determined using Labsystems Multiskan Ascent microplate reader. Biofilm was measured by discarding the medium; rinsing the wells with water (three times), and staining bound cells with crystal violet. The dye was solubilized with 33% acetic acid, and absorbance at 630 nm was determined using a microtiter plate reader.

S. epidermidis = assay: In vitro microplate growth and biofilm formation assay (crystal violet); type: cell-based, Staphylococcus epidermidis; conditions: DispersinB at different concentrations, TSB, 37° C., 24 hours
Description: An overnight culture of S. epidermidis in Tryptic Soy Broth (TSB) was used as inoculum. Bacteria were grown in TSB on a 96-well microtiterplate in the absence and presence of each compound (DispersinB™ or TCSN) at different concentrations separately and together (DispersinB™+TCSN). Concentrations of DispersinB™ included 25 ng/ml, 50 ng/ml, and 100 ng/ml. Concentrations of TCSN included 25 μg/ml, 50 μg/ml, and 100 μg/ml. The plate was incubated at 37° C. for 24 hours. The growth and biofilm was measured as explained in Example 1.
The experiment was performed as explained in Example 1.
An in vitro microtiter assay was performed to determine the effect of DispersinB™ wound gel on the growth and biofilm formation of Staphylococcus epidermidis. S. epidermidis biofilm was grown in tryptic soy broth (TSB). S. epidermidis was grown in 96-well microtiter plate in the absence and presence of DispersinB™ wound gel at different concentrations. The plate was incubated at 37° C. for 24 hours.
In vitro microplate assay was performed to determine the synergistic effect of DispersinB™ and triclosan (an antimicrobial agent) on the growth and biofilm formation of S. epidermidis. Overnight culture of S. epidermidis in Tryptic Soy Broth (TSB) was used as inoculum. […]

S. aureus = assay: In vitro microplate biofilm formation assay (crystal violet); type: cell-based, Staphylococcus aureus; conditions: DispersinB at different concentrations, TSB, 37° C., 24 hours
Description: as §5

[1] = tested on: biofilm-embedded S. epidermidis; assay: In vitro biofilm killing assay after DispersinB pre-treatment; type: cell-based, Staphylococcus epidermidis; conditions: DispersinB alone, 20 μg/ml, 30 min
Description: An in vitro biofilm assay was performed to determine the effect of DispersinB™ pre-treatment on the susceptibility of S. epidermidis to SDS. S. epidermidis biofilm grown in tubes were pretreated with PBS or DispersinB™ (20 μg/ml) for 30 min, and then treated with SDS (0.2 mg/ml) for 5 min at 37° C. […] However, SDS caused a 1.5 log unit decrease in the number of CFUs in tubes pretreated with […] biofilm embedded cells more susceptible to SDS.
An in vitro biofilm assay was performed to determine the effect of DispersinB™ pre-treatment on the susceptibility of biofilm-embedded S. epidermidis to CHX. S. epidermidis biofilm grown in tubes were pretreated with PBS or DispersinB™ (20 μg/ml) for 30 min, and then treated with CHX (0.2 μg/ml) for 5 min at 37° C. […] However, CHX caused a 1.6 log decrease of CFU in tubes pretreated with DispersinB™. DispersinB™ pretreatment made biofilm-embedded cells more susceptible to CHX.
An in vitro biofilm assay was performed to determine the effect of DispersinB™ pre-treatment on the susceptibility of S. epidermidis to BKC. S. epidermidis biofilm grown in tubes were pretreated with PBS or DispersinB™ (20 μg/ml) for 30 min, and then treated with BKC (0.4 μg/ml) for 60 min at 37° C. […] However, BKC caused a 2.2 log decrease in CFU in tubes pretreated with DispersinB™. DispersinB™ pre-treatment made biofilm-embedded cells more susceptible to BKC.
An in vitro biofilm assay was performed to determine the effect of DispersinB™ pre-treatment on susceptibility of S. epidermidis to silver nanopowder (SNP). S. epidermidis biofilm grown in tubes were pretreated with PBS or DispersinB™ (20 μg/ml) for 30 min, and then treated with SNP (0.03125 μg/ml) for 60 min at 37° C. […] However, SNP caused a 1.5 log decrease in CFU in tubes pretreated with DispersinB™. DispersinB™ pre-treatment made biofilm embedded cells more susceptible to SNP treatment.

[2] = tested on: A. actinomycetemcomitans strain CU1000 (wild-type) biofilms; assay: Biofilm detachment assay (crystal violet); type: cell-based
Description: (§1) Bacterial strains, media, and growth conditions. A. actinomycetemcomitans strain CU1000 (serotype f) was isolated from a person with localized aggressive periodontitis (Fine et al., Microbiol. 1999, 145: 1335-1347). […] An isogenic PGA mutant strain HW1018 (CU1000 pgaC::IS903φKan) was isolated by randomly mutagenizing CU1000 with transposon IS903φKan and selecting mutants that produced white colonies on Congo red agar, as previously described (Kaplan et al., 2003; Kaplan et al., J. Bacteriol. 2004, 186: 8213-8220). Like other pgaC mutant strains, HW1018 was completely deficient in PGA production, but still formed tenacious biofilms on plastic surfaces (Kaplan et al., 2004). Bacteria were grown in trypticase soy broth supplemented with […] and 8 g/L glucose. Solid medium was supplemented with 15 g/L agar. All cultures were incubated statically at 37° C. in 10% CO2.
(§2) Biofilm Cultures. Biofilms were grown in 17 mm×100 mm culture tubes (untreated polystyrene; Falcon #352051) or 96-well microtiter plates (tissueculture-treated polystyrene, flat bottoms; Falcon #353072). Culture vessels were inoculated with a 1:10 dilution of inoculum in fresh broth (1 mL for tubes or 200 μL for microplates) and incubated for 24 h.
(§3) Crystal Violet Assay. Biofilm biomass was visualized and quantitated by means of a crystal violet binding assay as previously described (Kaplan et al., Antimicrob. Agents Chemother. 2004, 48: 2633-2636). Briefly, biofilms were rinsed with water to remove loosely attached cells, stained for 1 min with Gram's crystal violet (200 μL for microplates and 1 mL for tubes), rinsed, dried, and photographed. For quantitation of biofilms grown in microplates, biofilms were de-stained with 200 μL of 33% acetic acid for 5 min, and the absorbance of the crystal violet solution was measured directly in the plate by means of a BioRad Benchmark microtiter plate-reader set at 590 nm. Crystal violet binds to bacterial biofilms, but not to polystyrene (O'Toole & Kolter, Mol. Microbiol. 1998, 28: 449-461).
(§4) Biofilm Detachment Assay. Biofilms were rinsed with water and treated with 200 μL (for microplates) or 1 mL (for tubes) of DispersinB™ (20 μg/mL in PBS) or SDS (0.001-1% in PBS). After a five- or 30-minute incubation at 37° C., biofilms were rinsed with water and stained with crystal violet as described above. In some assays, biofilms were first treated with DispersinB™ for 5 or 30 min, rinsed, and then treated with SDS. All detachment assays were performed in duplicate wells or tubes. All assays were performed on at least 3 separate occasions, with similar results.

[3] = tested on: A. actinomycetemcomitans strain HW1018 (PGA mutant) biofilms; assay: Biofilm detachment assay (crystal violet); type: cell-based; conditions: DispersinB 20 μg/mL; either culture vessel
Description: as §1, §2, §3, §4

B1: DispersinB™: 381 amino acid soluble β-N-acetylglucosaminidase encoded by dspB of A. actinomycetemcomitans; mature polypeptide SEQ ID NO:11 (protein)
chain: NCCVKGNSIYPQKTSTKQTGLMLDIARHFYSPEVIKSFIDTISLSGGNFLHLHFSDHENYAIESHLLNQRAENAVQGKDGIYINPYTGKPFLSYRQLDDIKAYAKAKGIELIPELDSPNHMTAIFKLVQKDRGVKYLQGLKSRQVDDEIDITNADSITFMQSLMSEVIDIFGDTSQHFHIGGDEFGYSVESNHEFITYANKLSYFLEKKGLKTRMWNDGLIKNTFEQINPNIEITYWSYDGDTQDKNEAAERRDMRVSLPELLAKGFTVLNYNSYYLYIVPKASPTFSQDAAFAAKDVIKNWDLGVWDGRNTKNRVQNTHEIAGAALSIWGEDAKALKDETIQKNTKSLLEAVIHKTNGDE
modifications: Actinobacillus actinomycetemcomitans
B1 was tested, and the biofilm formation (E. coli) was “appreciable effect”, the biofilm formation (S. epidermidis) was “appreciable effect” and the biofilm formation (S. aureus) was “appreciable effect”. For the same molecule, the “killing of biofilm-embedded S. epidermidis” value [1] was “did not significantly kill”, the “detachment of wild-type biofilms from microplate wells” value ([2]; DispersinB 20 μg/mL in PBS, 5 min, 96-well microplate wells) was “not from microplate wells” and the “detachment of wild-type biofilms from tubes” value ([2]; DispersinB 20 μg/mL in PBS, 5 min, polystyrene tubes) was “rapid detachment”. The “single cells in suspension after disaggregation of biofilms” value ([2]; biofilms grown in tubes, DispersinB, microscopic analyses (data not shown)) was > 99% and the “attachment of PGA mutant biofilms” value [3] was “no effect”.
